One experiment deals with VRC01 UCA (human). Put plainly: SPR. (In SPR one partner is held on a chip, and binding of the other changes the refractive index at the surface.)
In another experiment the target is VRC01 UCA. Put plainly: BLI. To be noted: read at the end of association (300 s), read off a plot.

VRC01 UCA (human), sequence (heavy, as listed by the source, chain 1 of 2): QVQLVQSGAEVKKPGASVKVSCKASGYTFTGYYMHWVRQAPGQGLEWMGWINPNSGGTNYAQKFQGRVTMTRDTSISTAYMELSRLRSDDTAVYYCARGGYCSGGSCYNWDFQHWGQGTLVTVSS
VRC01 UCA (human), sequence (light, as listed by the source, chain 2 of 2): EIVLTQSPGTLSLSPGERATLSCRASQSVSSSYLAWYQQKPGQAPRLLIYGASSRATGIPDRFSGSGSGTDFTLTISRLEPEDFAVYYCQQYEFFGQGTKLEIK

TM4ΔV1-3 (monomer) (domain or fragment): the equilibrium dissociation constant (Kd) with VRC01 UCA (human) was over 100 µM.

For “BG505 SOSIP v4.1-GT1 trimer (from UniProt Q2N0S6 1-860) (complex)”, in the experiment with VRC01 UCA (human), the Kd amounted to 3 µM, the dissociation rate constant (koff) worked out at 0.018 s⁻¹ and the kon was 8000 M⁻¹ s⁻¹.

Turning to TM4ΔV1-3 (24-mer) D268R; E370A, in the experiment with VRC01 UCA (VRC01 UCA IgG x 24-mer, parent: est. 0.68), the response stood at 0 nm.

On to TM4ΔV1-3 (heptamer) D368R; E370A, for which the response with VRC01 UCA (VRC01 UCA IgG x heptamer, parent: est. 0.43) is 0 nm.

What is called Kd is the concentration at which binding is half-saturated. The low end stands for tighter binding, the high end for weaker binding. Usually koff stands for the first-order rate constant of dissociation. A low value points to a long-lived complex. The term kon denotes the rate constant with which the complex forms. Read a low kon as slower complex formation.

The values above are taken from paper PMC6303191.
